Source: article PMC12216891 (Scientific Reports, 2025)

Molecular target: the molecule itself
Assay: cryo-EM structure

B1: Thermochromatium tepidum form-IAq RuBisCO large subunit (RbcL) (natural protein, UniProt A0A6I6DX30 1-472, looked up)
chain: MAKTYSAGVKEYRETYWMPNYTPKDTDILACFKITPQPGVPREEAAAAVAAESSTGTWTTVWTDLLTDLDYYKGRAYAIEDVPGDDTCFYAFIAYPIDLFEEGSVVNVFTSLVGNVFGFKAVRALRLEDVRFPIAYVMTCNGPPHGIQVERDILNKYGRPLLGCTIKPKLGLSAKNYGRAVYECLRGGLDFTKDDENVNSQPFMRWRQRFDFVMEAIDKAERETGERKGHYLNVTAPTPEEMYKRAEYAKEIGAPIIMHDYITGGFCANTGLAQWCRNNGVLLHIHRAMHAVLDRNPHHGIHFRVLTKILRLSGGDHLHTGTVVGKLEGDRQATLGWIDLLRESYVKEDRSRGIFFDQDWGAMPGAFAVASGGIHVWHMPALVTIFGDDSVLQFGGGTLGHPWGNAAGACANRVALEACIEARNQGIPIEKEGKEVLTKAAAHSPELKIAMETWKEIKFEFDSVDKLDVAHK
stoichiometry N: 8
